Data on one molecule can be found in publication PMC8115599, “Mechanism of MRX inhibition by Rif2 at telomeres” (Nature Communications, 2021).

In the assay the target is T1, GST-Rif2_(1-60) (S. cerevisiae, UniProt Q06208 1-60).
T1 construct: Rif2, S. cerevisiae, residues 1-60; also called GST-ScRif2_(1-60); Rif2 BAT; source: E. coli BL21 (DE3), purified (GSH Sepharose, Hitrap Heparine)
T1 sequence (looked up): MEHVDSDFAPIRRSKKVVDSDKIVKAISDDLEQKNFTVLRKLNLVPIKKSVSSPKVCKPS
Kind of assay: pull-down; GST-Rif2_(1-60), its F8A mutant or GST (10 µg) immobilised on Glutathione Sepharose 4B; Rad50∆CC (30 µg) added in 100 µL 50 mM Tris HCl pH 8, 150 mM NaCl, 1 mM DTT, 0.5 mM EDTA, 10% glycerol, 2 mM MgCl2, benzonase; 120 min at 4 °C; glutathione elution, SDS-PAGE, silver staining. Conditions: both partners purified.

B1: Rad50∆CC, purified (His-SUMO tag removed) (domain or fragment, S. cerevisiae)
chain: MSAIYKLSIQGIRSFDSNDRETIEFGKPLTLIVGMNGSGKTTIIECLKYATTGDLPPNSKGGVFIHDPKITGEKDIRAQVKLAFTSANGLNMIVTRNIQLLMKKTTTTFKTLEGQLVAINNSGDRSTLSTRSLELDAQVPLYLGVPKAILEYVIFCHQEDSLWPLSEPSNLKKKFDEIFQAMKFTKALDKILCYDDIDVYSKALDSAIMKYHGLKMQDINRIIDELWKRTYSGTDIDTIKIRSDEVSSTVKGKSYNYRVVMYKQDVELDMRGRCSAGQKVLASIIIRLALSETFGANCGVIALDEPTTNLDEENIESLAKSLHNIINMRRHQKNFQLIVITHDEKFLGHMNAAAFTDHFFKVKRDDRQKSQIEWVDINRVTY
notes: Rad50, S. cerevisiae, N-terminal Head domain, residues 1-189; residues joining the two Head domains in the Rad50∆CC allele; Rad50, S. cerevisiae, C-terminal Head domain, residues 1125-1312; also called Rad50 ATPase Head; Rad50 Head domains; source: E. coli BL21 (DE3), purified (NiNTA, PD10; tag cleaved with His-SUMO-Protease); not shown: His6-SUMO, N-terminal, cleaved
For the molecule B1, the binding result is “binds”.
